Data as given in the supplement of paper PMC7125110.
± gives the standard error. For some assays here: Variants at the floor of the assay were thinned out.

B1: glmS ribozyme (parent)
chain: AUAAAAGCGCCAGAACUACAGAAAUGUAGUUGACGAGGAGGAGGUUUAUCGAAUUUUCGGCGGAUGCCUCCAAA

What was measured:
Conditions in all cases: with glucosamine-6-phosphate
glucosamine-6-phosphate [1] = variants of: B1; experiment: kcat; higher = faster cleavage; RNA array
Procedure, shortened: (§1)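 Weighted Michaelis–Menten fits across concentrations supplied kcat and KM, based on kobs from one- or two-exponential decay fits to normalised per-tile medians. The data came from barcoded ribozyme variants transcribed in situ by E. coli RNA polymerase on sequenced MiSeq chips and tracked at 37 °C by a hybridised Cy3 probe. Glucosamine-6-phosphate (40 μM to 10 mM) in HEPES/KCl/Mg(OAc)2 buffer was flowed in.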

glucosamine-6-phosphate [2] = variants of: B1; experiment: KM; higher = weaker cofactor use; RNA array
Procedure, shortened: as §1

glucosamine-6-phosphate [3] = variants of: B1; experiment: self-cleavage kobs at 40 uM GlcN6P; higher = faster cleavage; RNA array
Procedure, shortened: as §1

glucosamine-6-phosphate [4] = variants of: B1; experiment: self-cleavage kobs at 160 uM GlcN6P; higher = faster cleavage; RNA array
Procedure, shortened: as §1

glucosamine-6-phosphate [5] = variants of: B1; experiment: self-cleavage kobs at 640 uM GlcN6P; higher = faster cleavage; RNA array
Procedure, shortened: as §1

glucosamine-6-phosphate [6] = variants of: B1; experiment: self-cleavage kobs at 2500 uM GlcN6P; higher = faster cleavage; RNA array
Procedure, shortened: as §1

glucosamine-6-phosphate [7] = variants of: B1; experiment: self-cleavage kobs at 10000 uM GlcN6P; higher = faster cleavage; RNA array
Procedure, shortened: as §1

For G37A A53U, the kcat (glucosamine-6-phosphate [1]) was 0.00237 ± 0.00046 s⁻¹, the KM (glucosamine-6-phosphate [2]) was 3520 ± 930 µM and the “self-cleavage kobs at 40 uM GlcN6P” value (glucosamine-6-phosphate [3]) was 4.73e-05 ± 1.1e-05 s⁻¹. For the same variant, the “self-cleavage kobs at 160 uM GlcN6P” value (glucosamine-6-phosphate [4]) was 9.91e-05 ± 1.2e-05 s⁻¹, the “self-cleavage kobs at 640 uM GlcN6P” value (glucosamine-6-phosphate [5]) was 0.000367 ± 3.5e-05 s⁻¹ and the “self-cleavage kobs at 2500 uM GlcN6P” value (glucosamine-6-phosphate [6]) was 0.000924 ± 0.0001 s⁻¹. The “self-cleavage kobs at 10000 uM GlcN6P” value (glucosamine-6-phosphate [7]) was 0.00185 ± 0.00023 s⁻¹.

With A33U A42G the kcat (glucosamine-6-phosphate [1]) was 0.000108 ± 7.3e-06 s⁻¹, the KM (glucosamine-6-phosphate [2]) was 2000 ± 350 µM and the “self-cleavage kobs at 2500 uM GlcN6P” value (glucosamine-6-phosphate [6]) was 6.02e-05 ± 1.3e-05 s⁻¹. For the same variant, the “self-cleavage kobs at 10000 uM GlcN6P” value (glucosamine-6-phosphate [7]) was 8.89e-05 ± 3e-05 s⁻¹.

With U31C U47A U56C the kcat (glucosamine-6-phosphate [1]) was 0.00113 ± 0.00024 s⁻¹, the KM (glucosamine-6-phosphate [2]) was 5360 ± 1700 µM and the “self-cleavage kobs at 640 uM GlcN6P” value (glucosamine-6-phosphate [5]) was 0.000111 ± 2.5e-05 s⁻¹. For the same variant, the “self-cleavage kobs at 2500 uM GlcN6P” value (glucosamine-6-phosphate [6]) was 0.000487 ± 0.00011 s⁻¹ and the “self-cleavage kobs at 10000 uM GlcN6P” value (glucosamine-6-phosphate [7]) was 0.000707 ± 0.00012 s⁻¹.

For A33C A42G, the kcat (glucosamine-6-phosphate [1]) was 0.00107 ± 0.0002 s⁻¹, the KM (glucosamine-6-phosphate [2]) was 5240 ± 1500 µM and the “self-cleavage kobs at 640 uM GlcN6P” value (glucosamine-6-phosphate [5]) was 0.000127 ± 2e-05 s⁻¹. For the same variant, the “self-cleavage kobs at 2500 uM GlcN6P” value (glucosamine-6-phosphate [6]) was 0.000266 ± 0.0001 s⁻¹ and the “self-cleavage kobs at 10000 uM GlcN6P” value (glucosamine-6-phosphate [7]) was 0.000716 ± 0.00011 s⁻¹.

With G35U A53U the kcat (glucosamine-6-phosphate [1]) was < 1e-05 s⁻¹ and the “self-cleavage kobs at 640 uM GlcN6P” value (glucosamine-6-phosphate [5]) was < 1e-05 s⁻¹.

In the case of A33C U56A, the kcat (glucosamine-6-phosphate [1]) is reported as 0.000161 ± 5.6e-05 s⁻¹ and the “self-cleavage kobs at 10000 uM GlcN6P” value (glucosamine-6-phosphate [7]) is reported as 8.05e-05 ± 1.2e-05 s⁻¹.

U31G U55C was tested, and the kcat (glucosamine-6-phosphate [1]) was 0.00961 ± 0.0014 s⁻¹, the KM (glucosamine-6-phosphate [2]) was 1860 ± 410 µM and the “self-cleavage kobs at 40 uM GlcN6P” value (glucosamine-6-phosphate [3]) was 0.000203 ± 4.2e-05 s⁻¹. The “self-cleavage kobs at 160 uM GlcN6P” value (glucosamine-6-phosphate [4]) was 0.001 ± 0.00031 s⁻¹, the “self-cleavage kobs at 640 uM GlcN6P” value (glucosamine-6-phosphate [5]) was 0.00232 ± 0.00064 s⁻¹ and the “self-cleavage kobs at 2500 uM GlcN6P” value (glucosamine-6-phosphate [6]) was 0.00461 ± 0.0011 s⁻¹. For the same variant, the “self-cleavage kobs at 10000 uM GlcN6P” value (glucosamine-6-phosphate [7]) was 0.00884 ± 0.0015 s⁻¹.

For G32C C68U, the kcat (glucosamine-6-phosphate [1]) was 1.25e-05 ± 1.1e-06 s⁻¹, the KM (glucosamine-6-phosphate [2]) was 1350 ± 620 µM and the “self-cleavage kobs at 160 uM GlcN6P” value (glucosamine-6-phosphate [4]) was < 1e-05 s⁻¹.

With G32C G51U the kcat (glucosamine-6-phosphate [1]) was < 1e-05 s⁻¹.

For G32A G44C C67U, the kcat (glucosamine-6-phosphate [1]) was 0.000144 ± 5.9e-05 s⁻¹, the “self-cleavage kobs at 40 uM GlcN6P” value (glucosamine-6-phosphate [3]) was < 1e-05 s⁻¹ and the “self-cleavage kobs at 2500 uM GlcN6P” value (glucosamine-6-phosphate [6]) was 0.000148 ± 4.6e-05 s⁻¹. The “self-cleavage kobs at 10000 uM GlcN6P” value (glucosamine-6-phosphate [7]) was 0.00011 ± 2.3e-05 s⁻¹.

In the case of C34U A48G C68A, the kcat (glucosamine-6-phosphate [1]) is reported as < 1e-05 s⁻¹, the “self-cleavage kobs at 40 uM GlcN6P” value (glucosamine-6-phosphate [3]) is reported as < 1e-05 s⁻¹ and the “self-cleavage kobs at 2500 uM GlcN6P” value (glucosamine-6-phosphate [6]) is reported as < 1e-05 s⁻¹.

In the case of G32A C34U, the kcat (glucosamine-6-phosphate [1]) is reported as < 1e-05 s⁻¹ and the “self-cleavage kobs at 640 uM GlcN6P” value (glucosamine-6-phosphate [5]) is reported as < 1e-05 s⁻¹.

In the case of A36C G59A, the kcat (glucosamine-6-phosphate [1]) is reported as < 1e-05 s⁻¹, the “self-cleavage kobs at 2500 uM GlcN6P” value (glucosamine-6-phosphate [6]) is reported as < 1e-05 s⁻¹ and the “self-cleavage kobs at 10000 uM GlcN6P” value (glucosamine-6-phosphate [7]) is reported as < 1e-05 s⁻¹.

U31G G41A was tested, and the kcat (glucosamine-6-phosphate [1]) was 0.000638 ± 6.8e-05 s⁻¹, the KM (glucosamine-6-phosphate [2]) was 1220 ± 220 µM and the “self-cleavage kobs at 160 uM GlcN6P” value (glucosamine-6-phosphate [4]) was 7.06e-05 ± 1.2e-05 s⁻¹. The “self-cleavage kobs at 640 uM GlcN6P” value (glucosamine-6-phosphate [5]) was 0.000224 ± 2.5e-05 s⁻¹, the “self-cleavage kobs at 2500 uM GlcN6P” value (glucosamine-6-phosphate [6]) was 0.000482 ± 6.9e-05 s⁻¹ and the “self-cleavage kobs at 10000 uM GlcN6P” value (glucosamine-6-phosphate [7]) was 0.000506 ± 9.5e-05 s⁻¹.

For G35A G37A, the kcat (glucosamine-6-phosphate [1]) was < 1e-05 s⁻¹ and the “self-cleavage kobs at 160 uM GlcN6P” value (glucosamine-6-phosphate [4]) was < 1e-05 s⁻¹.

In the case of G32A C50A, the kcat (glucosamine-6-phosphate [1]) is reported as < 1e-05 s⁻¹.

With A36U A52G the kcat (glucosamine-6-phosphate [1]) was 1.01e-05 ± 3e-06 s⁻¹, the “self-cleavage kobs at 40 uM GlcN6P” value (glucosamine-6-phosphate [3]) was < 1e-05 s⁻¹ and the “self-cleavage kobs at 10000 uM GlcN6P” value (glucosamine-6-phosphate [7]) was < 1e-05 s⁻¹.

For G32C A33G, the kcat (glucosamine-6-phosphate [1]) was < 1e-05 s⁻¹, the “self-cleavage kobs at 40 uM GlcN6P” value (glucosamine-6-phosphate [3]) was < 1e-05 s⁻¹ and the “self-cleavage kobs at 160 uM GlcN6P” value (glucosamine-6-phosphate [4]) was < 1e-05 s⁻¹. The “self-cleavage kobs at 2500 uM GlcN6P” value (glucosamine-6-phosphate [6]) was < 1e-05 s⁻¹.

For A36U G66C, the kcat (glucosamine-6-phosphate [1]) was < 1e-05 s⁻¹, the “self-cleavage kobs at 40 uM GlcN6P” value (glucosamine-6-phosphate [3]) was < 1e-05 s⁻¹ and the “self-cleavage kobs at 160 uM GlcN6P” value (glucosamine-6-phosphate [4]) was < 1e-05 s⁻¹.

U31G G43A showed a kcat (glucosamine-6-phosphate [1]) of 1.25e-05 ± 3.3e-06 s⁻¹.
